IntAct's records for PubMed 32851177

B1: Osteopetrosis-associated transmembrane protein 1 (Homo sapiens), Q86WC4 (parent)
chain: MEPGPTAAQRRCSLPPWLPLGLLLWSGLALGALPFGSSPHRVFHDLLSEQQLLEVEDLSLSLLQGGGLGPLSLPPDLPDLDPECRELLLDFANSSAELTGCLVRSARPVRLCQTCYPLFQQVVSKMDNISRAAGNTSESQSCARSLLMADRMQIVVILSEFFNTTWQEANCANCLTNNSEELSNSTVYFLNLFNHTLTCFEHNLQGNAHSLLQTKNYSEVCKNCREAYKTLSSLYSEMQKMNELENKAEPGTHLCIDVEDAMNITRKLWSRTFNCSVPCSDTVPVIAVSVFILFLPVVFYLSSFLHSEQKKRKLILPKRLKSSTSFANIQENSN
partner: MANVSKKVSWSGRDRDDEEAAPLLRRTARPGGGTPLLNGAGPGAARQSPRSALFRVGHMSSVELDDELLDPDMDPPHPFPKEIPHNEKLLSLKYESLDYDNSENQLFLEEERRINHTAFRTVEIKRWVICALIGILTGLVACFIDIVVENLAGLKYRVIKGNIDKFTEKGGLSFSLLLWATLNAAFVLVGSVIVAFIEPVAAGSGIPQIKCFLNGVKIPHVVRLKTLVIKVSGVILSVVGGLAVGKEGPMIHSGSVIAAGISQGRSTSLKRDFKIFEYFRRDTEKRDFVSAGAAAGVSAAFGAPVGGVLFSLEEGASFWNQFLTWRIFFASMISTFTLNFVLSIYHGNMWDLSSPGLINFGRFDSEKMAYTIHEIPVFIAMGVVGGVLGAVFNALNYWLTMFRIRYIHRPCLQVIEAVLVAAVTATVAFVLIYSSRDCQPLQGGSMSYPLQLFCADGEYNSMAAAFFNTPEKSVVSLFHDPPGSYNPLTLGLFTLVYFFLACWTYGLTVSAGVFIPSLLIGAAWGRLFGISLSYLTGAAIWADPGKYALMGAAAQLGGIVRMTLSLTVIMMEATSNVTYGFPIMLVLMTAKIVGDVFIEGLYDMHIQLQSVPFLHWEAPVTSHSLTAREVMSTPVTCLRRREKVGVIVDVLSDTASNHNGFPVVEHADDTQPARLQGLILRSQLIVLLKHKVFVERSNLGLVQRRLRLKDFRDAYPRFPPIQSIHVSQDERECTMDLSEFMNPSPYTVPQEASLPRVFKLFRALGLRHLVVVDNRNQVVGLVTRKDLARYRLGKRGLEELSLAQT

Variants of: B1
Details: with clcn7_human CLCN7, P51798

effect of a mutation on the interaction | Variant
decreasing interaction strength | Y300A
